Experimental data taken from patent US20180117168A1, “CYCLODEXTRIN-BASED POLYMERS FOR THERAPEUTIC DELIVERY” (priority 2013, published 2018).

How the values were obtained:
[1] = Tofacitinib dosed 5 mg PO twice daily; cited from earlier work
[2] = tested on: Adjuvant-Induced Arthritis (AIA) in Lewis Rat; test: Lewis rat adjuvant-induced arthritis (AIA) model; assay type: in vivo; settings: for % Max Change in Paw Volume / % Max Change in body weight: day of maximum in brackets; for Spleen weight with treatment (in words): regimens of Table 4
Excerpt: Animal and Facility: 75 female Lewis Rats at the age of 6 weeks were allowed to acclimate for 7 days in the animal facility (Cephrim Biosciences, Inc., Wellesley, Mass.). Animal housing, handling and procedures followed protocols and guidelines approved by the Institutional Animal Care and Use Committee (IACUC) of Cephrim Biosciences, Inc.
In vivo Adjuvant-Induced Arthritis (AIA) in Lewis Rat: The adjuvant used for induction of arthritis was purchased from Chondrex Inc. (Redmond, Wash.), a suspension that contains 10 mg/mL of heat-killed mycobacteria in incomplete Freund's adjuvant. On the day of induction, the rat was first anesthetized and 0.05 mL of the Complete Freund's Adjuvant (CFA) was subcutaneously injected into the sub-plantar area of the rat footpad. The needle was inserted just under the skin of the footpad pointing toward the ankle to maximize the immune response to the CFA. The rat body weight, paw volumes and clinical assessments were monitored closely after the induction. Once the secondary swelling appeared around the opposite rat paws or ankles, the rats were assigned in one of 10 groups (N=5) according to the severity of arthritis (e.g. the paw volume) and the treatments started at that time (see Table 4).
Rat arthritis was evaluated for body weight, paw volumes and clinical score once every other day. Special care including placing water and food gel supplements in the cages were given for those rats once it became difficult to move around due to their hind limb arthritis. The severity of arthritis was scored by visual inspection. Three un-injected paws were scored on a scale of 0 to 4, where 0=normal; 1, only on few digits; 2, on the paw; 3, on the ankle and 4, all swelling below ankle. The maximum score was 12. In addition to daily scores, the maximum arthritis index (MAI) was calculated at the end of the study for each rat by adding the greatest score recorded for each paw. Foot swelling was also determined objectively by measuring paw volume with a plethysmograph for the secondary arthritis (un-injected foot) and thickness using a caliper for the primary arthritis (injected foot).
Treatment Preparation: Dexamethasone stock was first dissolved in dimethyl sulfoxide at 1 mg/ml and kept in dark at room temperature. The corresponding dosing solution was prepared prior to each treatment by a 1:10 fold dilution with phosphate buffered saline (PBS). The dexamethasone dosing solution was given to the rats subcutaneously (SC) at 10 mL/kg. Tofacitinib (unconjugated parent drug) was added in 5% methylcellulose at 1 mg/mL and 0.25% of Tween-80. A homogeneous dosing suspension of tofacitinib was prepared using a mechanical homogenizer. The tofacitinib suspension was prepared daily and was given to rats by an oral gavage at 10 mL/kg. CDP-hexanoate-tofacitinib conjugate nanoparticles were kept in 4° C. until the end of the dosing period. They were given to their respective groups of rats by subcutaneous route at 10 mL/kg.

[3] = Particle size of formulated nanoparticles (particle sizer); assay type: physicochemical; settings: nanoparticles in water after TFF and 0.22 µm filtration
Protocol: (§1) The reaction mixture was worked up by precipitating the polymer in 15 volumes of acetone (150 mL). The polymer precipitated out immediately as a lump. The solution was stirred for 30 minutes and then the slightly turbid supernatant was decanted. The polymer precipitate was stirred in […] for 30 minutes and then dissolved 70 mL of water to prepare a ˜10 mg/mL polymer concentration. The polymer dissolved smoothly in water and the polymer solution was then filtered through a 0.22 p.m PES membrane. This solution was then washed using TFF (3×30K capsules) using 10 volumes of ultrapure water at pH 3. After diafiltration, the solution was concentrated down to approximately half the volume and the concentrated solution was filtered with a 0.22 p.m cellulose nitrate membrane. The filtered solution was analyzed for particle size using a particle sizer and Tofacitinib concentration using HPLC.
as §1, with “in 90” for “70”

[4] = Pharmacokinetic study, plasma levels of free and bound Tofacitinib by HPLC/MS/MS; assay type: in vivo, Mice (C57 B16 strain); parameters: Cl: unit not given here; settings: mice; for AUC / Cl / Vd / t1/2: analyte: Conjugate, single bolus 3 mg/kg; for Bioavailability via SC, of the IV based on AUC / Half-life for conjugate after SC dosing relative to the IV dose: 3 mg/kg SC vs IV; for IV AUC relative to the drug dosed PO alone: conjugate IV vs unconjugated tofacitinib PO
Protocol: Mice (C57 B16 strain) were treated by single bolus injection of each linker at 3 mg/kg. Blood samples were collected from individual animals and plasma made using EDTA as an anticoagulant. Levels of free and bound Tofacitinib were measured in the plasma samples using HPLC/MS/MS.

[5] = Drug release and stability of CDP-linker-Tofacitinib conjugate nanoparticles in PBS; assay type: physicochemical; settings: 1x PBS pH 7.4, 37° C.; for In vitro release of free drug (24 hrs in PBS at 37° C.): free drug/conjugated drug
Protocol: The drug release and stability method experiments were run using the following CDP-linker-Tofacitinib nanoparticles: CDP-Gly-Tofac (prepared by the method described in Example 5) and CDP-Hex-Tofac) (prepared by the method described in Example 10).
A 2.5 mg/mL (with regard to polymer) solution of each CDP-linker-Tofac nanoparticle was prepared in lx PBS buffer (pH=7.4). An aliquot of 150 μL was transferred into corresponding HPLC vials. A vial containing each CDP-linker-Tofac nanoparticle in PBS pH 7.4 for each designated time point was placed in a water bath at 37° C. Samples were mixed using a water bath shaker at 100 rpm during the experiments. At each designated time point, a vial was removed for each CDP-linker-Tofac nanoparticle and processed for HPLC using a sample preparation procedure.
To prepare a sample for HPLC analysis, each vial containing 150 μL of sample was mixed with 75 μL of 0.1% formic acid in acetonitrile. If there was any precipitated material in the vial, the contents were also stirred to dissolve the precipitate. If the sample was still opaque, an additional 25 μL of 0.1% formic acid in acetonitrile was added. HPLC analysis was used to determine the amount of free Tofacitinib and the amount of conjugated Tofacitinib in the sample for a given time point.
For the HPLC analysis at each time point, the peak areas of all relevant peaks from the chromatograms were retrieved and the concentration of free and conjugated Tofacitinib was calculated. The sample degradation was calculated based on the percentage of the amount of conjugated drug with regard to the initial starting point of the experiment (at t=0). The drug release was calculated based on the sum of free Tofacitinib and Tofacitinib main degradants at each time point.

Compound | Spleen weight with treatment (in words) ([2]; AIA rats) | Dv50 [3] | Dv90 [3] | Particle PDI [3] | Zavg [3] | AUC ([4]; route IV, plasma) | Cl ([4]; route IV, plasma) | Vd ([4]; route IV, plasma) | t1/2 ([4]; route IV, plasma) | AUC ([4]; route SC, plasma) | Cl ([4]; route SC, plasma) | Vd ([4]; route SC, plasma) | t1/2 ([4]; route SC, plasma) | Half-life for conjugate after SC dosing relative to the IV dose [4] | IV AUC relative to the drug dosed PO alone [4] | In vitro degradation of conjugate (24 hrs in PBS at 37° C.) [5] | In vitro release of free drug (24 hrs in PBS at 37° C.) [5] | further results
C[C@@H]1CCN(C(=O)CC#N)C[C@@H]1N(C)c1ncnc2[nH]ccc12 [Tofacitinib, reference compound] | declined |  |  |  |  |  |  |  |  |  |  |  |  |  |  |  |  | half-life [1]: 3 to 5 h; AVE Spleen Weight ([2]; 10 mg/kg, bid x 14, po): 0.392 g; MAI (maximum arthritis index) ([2]; 10 mg/kg, bid x 14, po): 30; % Max Change in Paw Volume ([2]; 10 mg/kg, bid x 14, po): +30.7% (D14); % Max Change in body weight ([2]; 10 mg/kg, bid x 14, po): −9.0% (d13)
CDP-Tofacitinib Ethylene Glycol Monoglycinate [CDP-Glycine-Tofacitinib] |  | 11.4 nm | 19.8 nm | 0.418 | 26.23 nm | 2061.85 µg·h/mL | 0.04 | 2.6 mL | 50 h | 1254.162 µg·h/mL | 0.06 | 2.4 mL | 28 h | doubling of half-life | ~1000 × | 15.23% | 9.45% | Bioavailability via SC, of the IV based on AUC [4]: 60%; Free levels, of the circulating conjugate ([4]; 3 mg/kg, plasma): less than 1%; In vitro release of free drug (24 hrs in PBS at 37° C.) ([5]; listed as CDP-Glycine-Tofac): 9.45%
CDP-Tofacitinib Ethylene Glycol Monohexanoate [CDP-Hexanoate-Tofacitinib] | maintained | 12.8 nm | 21.7 nm | 0.218 | 20.64 nm | 1030.865 µg·h/mL | 0.07 | 2.4 mL | 23.2 h | 569.866 µg·h/mL | 0.132 | 8.9 mL | 47 h | increased by two fold | ~1000 × | 3.54% | 2.06% | AVE Spleen Weight ([2]; 0.3 mg/kg, q7d x 2, sc): 0.643 g; MAI (maximum arthritis index) ([2]; 0.3 mg/kg, q7d x 2, sc): 41; % Max Change in Paw Volume ([2]; 0.3 mg/kg, q7d x 2, sc): +48.0% (d16); % Max Change in body weight ([2]; 0.3 mg/kg, q7d x 2, sc): −12.9% (d16); AVE Spleen Weight ([2]; 1 mg/kg, q7d x 2, sc): 0.642 g; MAI (maximum arthritis index) ([2]; 1 mg/kg, q7d x 2, sc): 46; % Max Change in Paw Volume ([2]; 1 mg/kg, q7d x 2, sc): +45.2% (d16); % Max Change in body weight ([2]; 1 mg/kg, q7d x 2, sc): −14.5% (d18); Paw volume as a percent of the initial paw volume (Day 1) ([2]; 3 mg/kg q7d×2 sc, after two cycles (28 days), FIG. 16): below 100%; AVE Spleen Weight ([2]; 3 mg/kg, q7d x 2, sc): 0.606 g; MAI (maximum arthritis index) ([2]; 3 mg/kg, q7d x 2, sc): 39; % Max Change in Paw Volume ([2]; 3 mg/kg, q7d x 2, sc): +42.5% (d16); % Max Change in body weight ([2]; 3 mg/kg, q7d x 2, sc): −9.3% (d13); Cumulative dose giving similar efficacy, of the cumulative dose of unconjugated tofacitinib ([2]; 3 mg/kg/week vs. 140 mg/kg/week): 2%; Ankle swelling after treatment, of initial paw volume ([2]; AIA rats, level of healthy rats): 100%; Bioavailability via SC, of the IV based on AUC ([4]; 3 mg/kg): 60%; Bioavailability via SC, of the IV based on AUC ([4]; listed as CDP-Hexanoate-Tofacitinib Conjugate, 3 mg/kg): approximately 60%; Levels of released drug, of the total ([4]; 3 mg/kg, plasma): approximately 5%; In vitro release of free drug (24 hrs in PBS at 37° C.) ([5]; listed as CDP-Hex-Tofac): 2.06%
C[C@@H]1C[C@H]2[C@@H]3CCC4=CC(=O)C=C[C@]4(C)[C@@]3(F)[C@@H](O)C[C@]2(C)[C@@]1(O)C(=O)CO [Dexamethasone, reference compound] | declined |  |  |  |  |  |  |  |  |  |  |  |  |  |  |  |  | AVE Spleen Weight ([2]; 1 mg/kg, q2d x 7, sc): 0.253 g; MAI (maximum arthritis index) ([2]; 1 mg/kg, q2d x 7, sc): 29; % Max Change in Paw Volume ([2]; 1 mg/kg, q2d x 7, sc): +26.5% (d13); % Max Change in body weight ([2]; 1 mg/kg, q2d x 7, sc): −13.5% (d18)
